Experimental data published in US5668265.

Target: alpha-thrombin (Homo sapiens) (UniProt P00734+P00734)
Assay: SPR
Settings: apparent
[1] = DNA segments joined 3'-3' by a single phosphodiester (inverted polarity; second segment given 5'-3'), solution competition vs immobilized consensus aptamer, same buffer, 25 C
[2] = DNA segments joined 3'-3' through glycerol phosphodiester linker L2 (both segments given 5'-3'), solution competition vs immobilized consensus …, same buffer, 25 C

GGTTGGTGGTTGGT [Compound 5]
Kd (DNA segments joined 3'-3' through hexaethylene glycol phosphodiester linker L1 (both segments given 5'-3'), solution competition vs immobilized consensus aptamer, 80 nM thrombin, 20 mM Tris-acetate, 140 mM NaCl, 5 mM KCl, 1 mM CaCl2, 1 mM MgCl2, pH 7.4 …): 0.009 µM

GGTTGGTGGGTTGGT [Compound 1]
Kd [1]: 0.224 µM

TGGTTGGTGGTTGG [Compound 7]
Kd (DNA segments joined 5'-5' through hexaethylene glycol phosphodiester linker L1 (both segments given 5'-3'), solution competition vs immobilized consensus aptamer, same buffer, 25 C): 0.023 µM

GGTTGGTTGGTTGGTT [Compound 6]
Kd (DNA segments joined 3'-3' through hexaethylene glycol phosphodiester linker L1 (both segments given 5'-3'), solution competition vs immobilized consensus aptamer, same buffer, 25 C): 0.01 µM

GGTTGGTTGGTTGGTT [Compound 9]
Kd [2]: 0.019 µM

GGTTGGTGGTTGGT [Compound 8]
Kd [2]: 0.029 µM

GGTTGGTTGGTTGGTT [Compound 2]
Kd [1]: 0.312 µM

TTGGTTGGTTGGTTGG [Compound 4]
Kd (DNA segments joined 5'-5' by a single phosphodiester (inverted polarity; both segments given 5'-3'), solution competition vs immobilized consensus aptamer, same buffer, 25 C): 0.025 µM

GGTTGGTTGGGTTGGTT [Compound 3]
Kd [1]: 0.011 µM

GGTTGGGGTTGG [Compound 11 (uni-directional)]
Kd (hexaethylene glycol phosphodiester linker L1 between 3' end of first and 5' end of second segment (normal polarity), solution competition vs immobilized consensus aptamer, same buffer, 25 C): 0.029 µM
